Patent publication US20250368745A1 (published 2025)

Molecular target: T1, human IL-18BP (human, UniProt O95998 31-194)
T1 construct: UniProt printed as 095998; also called hIL-18BP
T1 sequence: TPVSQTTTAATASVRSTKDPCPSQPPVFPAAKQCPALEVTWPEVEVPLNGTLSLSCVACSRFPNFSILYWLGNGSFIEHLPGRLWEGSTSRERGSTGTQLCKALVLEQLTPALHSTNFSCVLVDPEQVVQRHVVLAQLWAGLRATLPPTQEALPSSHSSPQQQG
Test: BLI, apparent KD

Row | Binder | Kd [nM]
1 | SA301a HC-G55K (antibody, name in Kabat numbering, V domains shown, IgG1 kappa) VH: QVQLQESGPGLVKPSQTLSLTCTVSGYSITSDYNSHWIRQPPGKGLEWIGYIHYSKSTNYNPSLKSRVTISRDTSKNQFSLKLSSVTAADTAVYYCARNYGSIYVNYFDYWGQGTLVTVSS VL: EIVLTQSPATLSLSPGERATLSCSASSSVSYMYWYQQKPGQAPRPLIYRTSNLASGIPARFSGSGSGTDFTLTISSLEPEDFAVYYCQQYHSYPTFGGGTKVEIK | 1.04
2 | SA301a HC-G55L (antibody, name in Kabat numbering, V domains shown, IgG1 kappa) VH: QVQLQESGPGLVKPSQTLSLTCTVSGYSITSDYNSHWIRQPPGKGLEWIGYIHYSLSTNYNPSLKSRVTISRDTSKNQFSLKLSSVTAADTAVYYCARNYGSIYVNYFDYWGQGTLVTVSS VL: EIVLTQSPATLSLSPGERATLSCSASSSVSYMYWYQQKPGQAPRPLIYRTSNLASGIPARFSGSGSGTDFTLTISSLEPEDFAVYYCQQYHSYPTFGGGTKVEIK | 1.72
3 | SA301a HC-G55M (antibody, name in Kabat numbering, V domains shown, IgG1 kappa) VH: QVQLQESGPGLVKPSQTLSLTCTVSGYSITSDYNSHWIRQPPGKGLEWIGYIHYSMSTNYNPSLKSRVTISRDTSKNQFSLKLSSVTAADTAVYYCARNYGSIYVNYFDYWGQGTLVTVSS VL: EIVLTQSPATLSLSPGERATLSCSASSSVSYMYWYQQKPGQAPRPLIYRTSNLASGIPARFSGSGSGTDFTLTISSLEPEDFAVYYCQQYHSYPTFGGGTKVEIK | 0.84
4 | SA301a HC-G55Q (antibody, name in Kabat numbering, V domains shown, IgG1 kappa) VH: QVQLQESGPGLVKPSQTLSLTCTVSGYSITSDYNSHWIRQPPGKGLEWIGYIHYSQSTNYNPSLKSRVTISRDTSKNQFSLKLSSVTAADTAVYYCARNYGSIYVNYFDYWGQGTLVTVSS VL: EIVLTQSPATLSLSPGERATLSCSASSSVSYMYWYQQKPGQAPRPLIYRTSNLASGIPARFSGSGSGTDFTLTISSLEPEDFAVYYCQQYHSYPTFGGGTKVEIK | 0.79
5 | SA301a HC-G55R (antibody, name in Kabat numbering, V domains shown, IgG1 kappa) VH: QVQLQESGPGLVKPSQTLSLTCTVSGYSITSDYNSHWIRQPPGKGLEWIGYIHYSRSTNYNPSLKSRVTISRDTSKNQFSLKLSSVTAADTAVYYCARNYGSIYVNYFDYWGQGTLVTVSS VL: EIVLTQSPATLSLSPGERATLSCSASSSVSYMYWYQQKPGQAPRPLIYRTSNLASGIPARFSGSGSGTDFTLTISSLEPEDFAVYYCQQYHSYPTFGGGTKVEIK | 0.75
6 | SA301a HC-G55S (antibody, name in Kabat numbering, V domains shown, IgG1 kappa) VH: QVQLQESGPGLVKPSQTLSLTCTVSGYSITSDYNSHWIRQPPGKGLEWIGYIHYSSSTNYNPSLKSRVTISRDTSKNQFSLKLSSVTAADTAVYYCARNYGSIYVNYFDYWGQGTLVTVSS VL: EIVLTQSPATLSLSPGERATLSCSASSSVSYMYWYQQKPGQAPRPLIYRTSNLASGIPARFSGSGSGTDFTLTISSLEPEDFAVYYCQQYHSYPTFGGGTKVEIK | 0.51
7 | SA301a HC-G55T (antibody, name in Kabat numbering, V domains shown, IgG1 kappa) VH: QVQLQESGPGLVKPSQTLSLTCTVSGYSITSDYNSHWIRQPPGKGLEWIGYIHYSTSTNYNPSLKSRVTISRDTSKNQFSLKLSSVTAADTAVYYCARNYGSIYVNYFDYWGQGTLVTVSS VL: EIVLTQSPATLSLSPGERATLSCSASSSVSYMYWYQQKPGQAPRPLIYRTSNLASGIPARFSGSGSGTDFTLTISSLEPEDFAVYYCQQYHSYPTFGGGTKVEIK | 1
8 | SA301a HC-G55V (antibody, name in Kabat numbering, V domains shown, IgG1 kappa) VH: QVQLQESGPGLVKPSQTLSLTCTVSGYSITSDYNSHWIRQPPGKGLEWIGYIHYSVSTNYNPSLKSRVTISRDTSKNQFSLKLSSVTAADTAVYYCARNYGSIYVNYFDYWGQGTLVTVSS VL: EIVLTQSPATLSLSPGERATLSCSASSSVSYMYWYQQKPGQAPRPLIYRTSNLASGIPARFSGSGSGTDFTLTISSLEPEDFAVYYCQQYHSYPTFGGGTKVEIK | 0.44
9 | SA301a HC-G55Y (antibody, name in Kabat numbering, V domains shown, IgG1 kappa) VH: QVQLQESGPGLVKPSQTLSLTCTVSGYSITSDYNSHWIRQPPGKGLEWIGYIHYSYSTNYNPSLKSRVTISRDTSKNQFSLKLSSVTAADTAVYYCARNYGSIYVNYFDYWGQGTLVTVSS VL: EIVLTQSPATLSLSPGERATLSCSASSSVSYMYWYQQKPGQAPRPLIYRTSNLASGIPARFSGSGSGTDFTLTISSLEPEDFAVYYCQQYHSYPTFGGGTKVEIK | 2.33
10 | SA301a HC-N58A (antibody, name in Kabat numbering, V domains shown, IgG1 kappa) VH: QVQLQESGPGLVKPSQTLSLTCTVSGYSITSDYNSHWIRQPPGKGLEWIGYIHYSGSTAYNPSLKSRVTISRDTSKNQFSLKLSSVTAADTAVYYCARNYGSIYVNYFDYWGQGTLVTVSS VL: EIVLTQSPATLSLSPGERATLSCSASSSVSYMYWYQQKPGQAPRPLIYRTSNLASGIPARFSGSGSGTDFTLTISSLEPEDFAVYYCQQYHSYPTFGGGTKVEIK | 0.64
11 | SA301a HC-N58D (antibody, name in Kabat numbering, V domains shown, IgG1 kappa) VH: QVQLQESGPGLVKPSQTLSLTCTVSGYSITSDYNSHWIRQPPGKGLEWIGYIHYSGSTDYNPSLKSRVTISRDTSKNQFSLKLSSVTAADTAVYYCARNYGSIYVNYFDYWGQGTLVTVSS VL: EIVLTQSPATLSLSPGERATLSCSASSSVSYMYWYQQKPGQAPRPLIYRTSNLASGIPARFSGSGSGTDFTLTISSLEPEDFAVYYCQQYHSYPTFGGGTKVEIK | 4.51
12 | SA301a HC-N58E (antibody, name in Kabat numbering, V domains shown, IgG1 kappa) VH: QVQLQESGPGLVKPSQTLSLTCTVSGYSITSDYNSHWIRQPPGKGLEWIGYIHYSGSTEYNPSLKSRVTISRDTSKNQFSLKLSSVTAADTAVYYCARNYGSIYVNYFDYWGQGTLVTVSS VL: EIVLTQSPATLSLSPGERATLSCSASSSVSYMYWYQQKPGQAPRPLIYRTSNLASGIPARFSGSGSGTDFTLTISSLEPEDFAVYYCQQYHSYPTFGGGTKVEIK | 2.5
13 | SA301a HC-N58G (antibody, name in Kabat numbering, V domains shown, IgG1 kappa) VH: QVQLQESGPGLVKPSQTLSLTCTVSGYSITSDYNSHWIRQPPGKGLEWIGYIHYSGSTGYNPSLKSRVTISRDTSKNQFSLKLSSVTAADTAVYYCARNYGSIYVNYFDYWGQGTLVTVSS VL: EIVLTQSPATLSLSPGERATLSCSASSSVSYMYWYQQKPGQAPRPLIYRTSNLASGIPARFSGSGSGTDFTLTISSLEPEDFAVYYCQQYHSYPTFGGGTKVEIK | 4.39
14 | SA301a HC-N58H (antibody, name in Kabat numbering, V domains shown, IgG1 kappa) VH: QVQLQESGPGLVKPSQTLSLTCTVSGYSITSDYNSHWIRQPPGKGLEWIGYIHYSGSTHYNPSLKSRVTISRDTSKNQFSLKLSSVTAADTAVYYCARNYGSIYVNYFDYWGQGTLVTVSS VL: EIVLTQSPATLSLSPGERATLSCSASSSVSYMYWYQQKPGQAPRPLIYRTSNLASGIPARFSGSGSGTDFTLTISSLEPEDFAVYYCQQYHSYPTFGGGTKVEIK | 0.31
15 | SA301a HC-N58I (antibody, name in Kabat numbering, V domains shown, IgG1 kappa) VH: QVQLQESGPGLVKPSQTLSLTCTVSGYSITSDYNSHWIRQPPGKGLEWIGYIHYSGSTIYNPSLKSRVTISRDTSKNQFSLKLSSVTAADTAVYYCARNYGSIYVNYFDYWGQGTLVTVSS VL: EIVLTQSPATLSLSPGERATLSCSASSSVSYMYWYQQKPGQAPRPLIYRTSNLASGIPARFSGSGSGTDFTLTISSLEPEDFAVYYCQQYHSYPTFGGGTKVEIK | 0.27
16 | SA301a HC-N58K (antibody, name in Kabat numbering, V domains shown, IgG1 kappa) VH: QVQLQESGPGLVKPSQTLSLTCTVSGYSITSDYNSHWIRQPPGKGLEWIGYIHYSGSTKYNPSLKSRVTISRDTSKNQFSLKLSSVTAADTAVYYCARNYGSIYVNYFDYWGQGTLVTVSS VL: EIVLTQSPATLSLSPGERATLSCSASSSVSYMYWYQQKPGQAPRPLIYRTSNLASGIPARFSGSGSGTDFTLTISSLEPEDFAVYYCQQYHSYPTFGGGTKVEIK | 0.34
